Columns and labels:
[1] = biological target: Mamu-E*02:04, single transfectant (rhesus macaque); experiment: cell-based or functional assay
[2] = biological target: Mamu-E*02:20, single transfectant (rhesus macaque); experiment: cell-based or functional assay

With SIVgag259-267 optimal 9mer peptide the peptide dose pulsed on the transfectant that triggers CD8+ T cells (ICS) [1] was < 1 nM and the peptide dose pulsed on the transfectant that triggers CD8+ T cells (ICS) [2] was < 1 nM.

In the case of SIVgag276-284 optimal 9mer peptide, the peptide dose pulsed on the transfectant that triggers CD8+ T cells (ICS) [1] was < 1 nM and the peptide dose pulsed on the transfectant that triggers CD8+ T cells (ICS) [2] was < 1 nM.

For SIVgag476-484 optimal 9mer peptide, the peptide dose pulsed on the transfectant that triggers CD8+ T cells (ICS) [1] was < 1 nM and the peptide dose pulsed on the transfectant that triggers CD8+ T cells (ICS) [2] was < 1 nM.

For SIVgag482-490 optimal 9mer peptide, the peptide dose pulsed on the transfectant that triggers CD8+ T cells (ICS) [1] was < 1 nM and the peptide dose pulsed on the transfectant that triggers CD8+ T cells (ICS) [2] was < 1 nM.

From patent US20180298404A1
